Where a chain is given by its changes, count along the chain named.
B1: antibody 320 (antibody, V domains shown)
VH: QVQLVQSGAEVKKPGASVKVSCKASGYTFTSYGISWVRQAPGQGLEWMGWISAYNGNTNYAQKLQGRVTMTTDTSTRTAYMELRSLRSDDTAVYYCARVGCYYDSSGYSCAENFQHWGQGTLVTVSS
VL: QSVLTQPPSVSGAPGQRVTISCTGSSSNIGAGYDVHWYQQLPGTAPKLLIYGNSNRPSGVPDRFSGSKSGTSASLAITGLQAEDEADYYCQSYDSSLSALFGGGTKLTVL
B2: antibody 329 (antibody, V domains shown)
VH: EVQLVESGGGLVQPGGSLRLSCAASGFTFSSYWMHWVRQAPGKGLVWVSRINSDGSSTSYADSVKGRFTISRDNAKNTLYLQMNSLRAEDTAVYYCAREGIVATITLDYWGQGTLVTVSS
VL: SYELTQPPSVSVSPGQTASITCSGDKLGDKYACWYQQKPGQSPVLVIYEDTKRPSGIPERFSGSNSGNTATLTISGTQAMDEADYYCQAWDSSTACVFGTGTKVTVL
B3: antibody 345 (antibody, V domains shown)
VH: QVQLQESGPGLVKPSQTLSLTCTVSGGSISSGDYYWSWIRQPPGKGLEWIGYIYYSGSTYYNPSLKSRVTISVDTSKNQFSLKLSSVTAADTAVYYCARVGMVDNWNFEGNWFDPWGQGTLVTVSS
VL: QSALTQPRSVSGSPGQSVTISCTGTSSDVGGYNYVSWYQQHPGKAPKLMIYDVSKRPSGVPDRFSGSKSGNTASLTISGLQAEDEADYYCCSYAGSVVFGGGTKLTVL
B4: antibody 349 (antibody, V domains shown)
VH: EVQLVQSGAEVKKPGATVKISCKVSGYTFTDYYMHWVQQAPGKGLEWMGLVDPEDGETIYAEKFQGRVTITADTSTDTAYMELSSLRSEDTAVYYCATENKVPTIIAAAGTRDYYYYGMDVWGQGTTVTVSS
VL: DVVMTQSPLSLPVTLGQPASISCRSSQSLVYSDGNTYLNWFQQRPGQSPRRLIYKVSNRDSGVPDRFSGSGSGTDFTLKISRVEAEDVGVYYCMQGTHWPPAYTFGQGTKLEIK
B5: antibody 324 (antibody, V domains shown)
VH: QVQLQESGPGLVKPSGTLSLTCAVSGGSISSSNWWSWVRQPPGKGLEWIGEIYHSGSTNYNPSLKSRVTISVDNSKNQFSLKLSSVTAADTAVYYCARESVAAAGISYYYYGMDVWGQGTTVTVSS
VL: EIVLTQSPGTLSLSPGERATLSCRASQSVSGRYLAWYQQKPGQAPRLLIYGASSRATGIPDRFSGSGSGTDFTLTISRLEPEDFAVYYCQHYGSSPGTFGQGTRLEIK
B6: antibody 328 (antibody, V domains shown)
VH: B5 VH
VL: DIQMTQSPSSLSASVGDRVTITCRASQGIRNDLGWYQQKPGKAPKRLIYAASSLQSGVPSRFSGSGSGTEFTLTVSGLQPEDFATYYCLQYNSSPLTFGGGTKVEIK
B7: antibody 331 (antibody, V domains shown)
V domain 1: QITLKESGPTLVKPTETLTLTCSFSGFSLTKTGEAAGWIRQAPGRALEWVTVIFWDDDKRYSPSLQNRISVTKDTSKNQVVLRMTNVARFDTGTYFCWAMGGPGKEYFGQGTLVAVSS
V domain 2: QSVLTQPPSVSGAPGQRVTISCTGTSSSIGPYSDVHWYQHVSGKAPRLLIFGNSNRPSGVPDRFSGSKSGTSASLVIAGLQAEDEADYYCQSYDSSLGEIYVFGTGTTVTVL
B8: antibody 339 (antibody, V domains shown)
V domain 1: B7 V domain 1 with K31R, N67S, I69L, S70T, R83T, G93A, L113Q
V domain 2: B7 V domain 2
B9: antibody 333 (antibody, V domains shown)
VH: QVHLVESGGGVVLPGRSLRLSCSASQFIFSNYDMHWVRQSPGMGLEWVAGISSDGSDKYYIDSVRGRFTISRDNAKNTLFLQMNSLTTEDTAVYSCAKGGGKFGQYWGRGTLVTVSS
VL: AIQMTQSPSSLSASVGDRVTITCRASQVIRNDLAWFQQKPGEAPNLLVYSASNLQSGVPSRFSGSGSGTDFTLTISSLQPEDFATYYCLQDYSYPYTFGQGTKLDMK
B10: antibody 332 (antibody, V domains shown)
VH: QVTLRESGPALVKPTQTLTLTCTFSGFSLSTSGMCVSWIRQPPGKALEWLALIDWDDDKYYSTSLKTRLTISKDTSKNQVVLTMTNMDPVDTATYYCARIHDDILTGYHYVDYWGQGTLVTVSS
VL: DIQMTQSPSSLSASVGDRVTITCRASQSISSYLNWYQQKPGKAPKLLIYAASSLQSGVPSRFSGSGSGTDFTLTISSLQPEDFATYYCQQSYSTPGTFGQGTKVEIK
B11: antibody 337 (antibody, V domains shown)
VH: QVQLVESGGGVVQPGRSLRLSCAASGFTFSSYGMHWVRQAPGKGLEWVAIIWYDGSNKYYADSVKGRFTISRDNSKNTLYLQMNSLRAEDTAVYYCAKDTGGYCSGGSCYPESYFDYWGQGTLVTVSS
VL: SYVLTQPPSVSVAPGKTARITCGGNNIGSKSVHWYQQKPGQAPVLVIYYDSDRPSGIPERFSGSNSGNTATLTINRVEAGDEADYYCQVWDGSSDHLYVFGTGTKVTVL
B12: antibody 342 (antibody, V domains shown)
VH: EVQLVQSGAEVKKPGATVKISCKVSGYTFTDYYMHWVQQAPGKGLEWMGLVDPEDGETIYAEKFQGRVTITADTSTDTAYMELSSLRSEDTAVYYCATGGVSVWFREFPASYSGSYLGYWGQGTLVTVSS
VL: not shown
B13: antibody 323 (antibody, V domains shown)
VH: QVQLVQSGAEVKKPGASVKVSCKVSGYTLTELSMHWVRQAPGKGLEWMGGFDPEDGETIYAQKFQGRVTMTEDTSTDTAYMELSSLRSEDTAVYYCATSTIFAPGGWFDPWGQGTLVTVSS
VL: QSALTQPASVSGSPGQSITISCTGTSSDVGSYNLVSWYQQHPGKAPKLMIYEVSKRPSGVSNRFSGSKSGNTASLTISGLQAEDEADYYCCSYAGSTHYVFGTGTKVTVL
B14: antibody 343 (antibody, V domains shown)
VH: QVQLVESGGDVVQPGTSLRLSCAASGFTFNNYGFHWVRQAPGKGLEWVALISSDGASTHYADSVKGRFTISRDSSVNTLYLQMNSLSLEDTAVYYCATGHCGTTCYYFDYWGQGTLVSVSS
VL: DIQVTQSPSYLSASVGDRVTITCRASQTISTFLQWYQQKVGKAPKLLIYAASTLQSGVPSRFSGSGSGTDFSLTISSLQPEDFATYYCQQSYSAPLSFGGGTKVEIK
B15: antibody 340 (antibody, V domains shown)
VH: QVQLVQSGAEVKKPGASVKVSCKASGYTFTSYDINWVRQATGQGLEWMGWMNPNSGNTGYAQKFQGRVTMTRNTSISTAYMELSSLRSEDTAVYYCARGRYCTGGVCWGDWYFDLWGRGTLVTVSS
VL: QSVLTQPPSVSGAPGQRVTISCTGSSSNIGAGYDVHWYQQLPGTAPKFLIYGNSNRPSGVPDRFSGSKSGTSASLAITGLQAEDEADYYCQSYDSSLSGPVFGGGTKLTVL
B16: antibody 348 (antibody, V domains shown)
VH: QVQLVQSGSELKKPGASVKVSCKASGYTFTSYAMNWVRQAPGQGLEWMGWINTNTGNPTYAQGFTGRFVFSLDTSVSTAYLQISSLKAEDTAVYYCARDHELPNTSSWFGHFEYWGQGTLVTVSS
VL: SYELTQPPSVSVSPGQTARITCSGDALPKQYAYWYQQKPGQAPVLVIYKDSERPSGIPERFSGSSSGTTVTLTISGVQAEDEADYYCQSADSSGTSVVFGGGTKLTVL

Each binder was assayed against SARS-CoV Spike protein (SARS-CoV, UniProt P59594 14-1190).

| Binder | bead binding signal (median fluorescence, fold over isotype control) [fold over isotype control] |
| --- | --- |
| B1 | 989 |
| B2 | 2.46 |
| B3 | 1.09 |
| B4 | 1.12 |
| B5 | 1.14 |
| B6 | 1.22 |
| B7 | 1.34 |
| B8 | 1.27 |
| B9 | 1.21 |
| B10 | 0.99 |
| B11 | 439 |
| B12 | 1.16 |
| B13 | 1.29 |
| B14 | 1.19 |
| B15 | 1.26 |
| B16 | 1.16 |
